Measurements as given in US20170128524A1 (published 2017).

Molecular target: T1, Syntaxin 1a (mouse, UniProt O35526 1-288)
T1 construct: also called STX1a; STX 1a
Assay: Co-IP with anti-STX1a antibody from mouse cortical synaptosomes, Western blot

T1 sequence (O35526 whole entry): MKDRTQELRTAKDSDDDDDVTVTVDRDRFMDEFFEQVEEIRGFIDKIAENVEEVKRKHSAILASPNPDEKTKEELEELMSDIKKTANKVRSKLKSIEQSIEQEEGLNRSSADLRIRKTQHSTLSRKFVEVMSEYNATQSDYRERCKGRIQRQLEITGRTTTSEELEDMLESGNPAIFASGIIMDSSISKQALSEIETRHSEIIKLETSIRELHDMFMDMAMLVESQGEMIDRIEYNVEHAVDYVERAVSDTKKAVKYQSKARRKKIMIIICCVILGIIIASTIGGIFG

binding result: no binding
B1: c-Jun N-terminal Kinase isoform 1 (JNK1) (enzyme, mouse, UniProt Q91Y86 1-384, looked up)
chain: MSRSKRDNNFYSVEIGDSTFTVLKRYQNLKPIGSGAQGIVCAAYDAILERNVAIKKLSRPFQNQTHAKRAYRELVLMKCVNHKNIIGLLNVFTPQKSLEEFQDVYIVMELMDANLCQVIQMELDHERMSYLLYQMLCGIKHLHSAGIIHRDLKPSNIVVKSDCTLKILDFGLARTAGTSFMMTPYVVTRYYRAPEVILGMGYKENVDLWSVGCIMGEMVCHKILFPGRDYIDQWNKVIEQLGTPCPEFMKKLQPTVRTYVENRPKYAGYSFEKLFPDVLFPADSEHNKLKASQARDLLSKMLVIDASKRISVDEALQHPYINVWYDPSEAEAPPPKIPDKQLDEREHTIEEWKELIYKEVMDLEERTKNGVIRGQPSPLAQVQQ
notes: Lower 46 kDa band of the JNK signal in the non-immunoprecipitated control; also called lower band, 46 kDa
